{"source": "paper PMC5508476", "about": "(Translational Oncology, 2017)", "binders": {"B1": {"name": "KM8188 (antibody, V domains shown)", "VH": "EVQLVESGGGVVQPGRSLRLSCSASGFTFSGYGLSWVRQAPGKGLEWVAMISSGGSYTYYADSVKGRFAISRDNAKNTLFLQMDSLRPEDTGVYFCARHGDDPAWFAYWGQGTPVTVSS", "VL": "DIQLTQSPSSLSASVGDRVTITCSVSSSISSNNLHWYQQKPGKAPKPWIYGTSNLASGVPSRFSGSGSGTDYTFTISSLQPEDIATYYCQQWSSYPYMYTFGQGTKVEIK"}}, "biological_target": "FOLR1-His (Homo sapiens, UniProt P15328)", "sequence (P15328 25-233)": "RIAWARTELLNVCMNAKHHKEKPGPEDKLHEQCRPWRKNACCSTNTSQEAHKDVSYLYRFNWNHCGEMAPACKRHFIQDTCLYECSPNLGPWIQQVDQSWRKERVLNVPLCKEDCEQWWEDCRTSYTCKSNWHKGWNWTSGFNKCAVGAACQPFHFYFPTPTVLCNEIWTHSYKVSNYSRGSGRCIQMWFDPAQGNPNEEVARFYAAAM", "test": "SPR"}
{"binder": "B1", "values": [{"measurement": "Kd", "result": 31.4, "unit": "nM"}]}
